Measurements: patent US20240279318A1 (NANJING LEGEND BIOTECH, published 2024)
Positions count from the first letter of the chain named. Read-outs that look alike come from different tables or passages of the source.

B1: HD102E (scFv)
scFv: QSALTQPRSVSGSPGQSVTISCAGTSSDVGSENYVSWYQQHPGKAPKLMIYQVNKRASGVPDRFSGSKSGNTASLTISGLQAEDEADYYCASYRSSDHNIVFGGGTKLTVLGGGGSGGGGSGGGGSEVQLVESGGGLVQPGGSLRLSCAASGFTFSSYAMSWVRQAPGKGLEWVSTINSGTGSPYYADSVKGRFTISRDNSKNTLYLQMNSLRAEDTAVYYCAKNFFEGSWFLGPPAMDYWGQGTLVTVSSHHHHHH
notes: AS170036 VL1VH1 scFv mutein
B2: LY93N (scFv)
scFv: B1 scFv with Y93N, E228D
notes: AS170036 VL1VH1 scFv mutein
B3: LY34V (scFv)
scFv: B1 scFv with Y34V, E228D
notes: AS170036 VL1VH1 scFv mutein
B4: LY34A (scFv)
scFv: B1 scFv with Y34A, E228D
notes: AS170036 VL1VH1 scFv mutein
B5: LY34G (scFv)
scFv: B1 scFv with Y34G, E228D
notes: AS170036 VL1VH1 scFv mutein
B6: LE32H (scFv)
scFv: B1 scFv with E32H, E228D
notes: AS170036 VL1VH1 scFv mutein
B7: HF101Y (scFv)
scFv: B1 scFv with F227Y, E228D
notes: AS170036 VL1VH1 scFv mutein
B8: LD97V (scFv)
scFv: B1 scFv with D97V, E228D
notes: AS170036 VL1VH1 scFv mutein
B9: LE32Q (scFv)
scFv: B1 scFv with E32Q, E228D
notes: AS170036 VL1VH1 scFv mutein
B10: LD97Y (scFv)
scFv: B1 scFv with D97Y, E228D
notes: AS170036 VL1VH1 scFv mutein
B11: LD97W (scFv)
scFv: B1 scFv with D97W, E228D
notes: AS170036 VL1VH1 scFv mutein
B12: LE32T (scFv)
scFv: B1 scFv with E32T, E228D
notes: AS170036 VL1VH1 scFv mutein
B13: LY93D (scFv)
scFv: B1 scFv with Y93D, E228D
notes: AS170036 VL1VH1 scFv mutein
B14: LY93T (scFv)
scFv: B1 scFv with Y93T, E228D
notes: AS170036 VL1VH1 scFv mutein
B15: HG56E (scFv)
scFv: B1 scFv with G182E, E228D
notes: AS170036 VL1VH1 scFv mutein
B16: LY34L (scFv)
scFv: B1 scFv with Y34L, E228D
notes: AS170036 VL1VH1 scFv mutein
B17: HG56Q (scFv)
scFv: B1 scFv with G182Q, E228D
notes: AS170036 VL1VH1 scFv mutein
B18: HG56M (scFv)
scFv: B1 scFv with G182M, E228D
notes: AS170036 VL1VH1 scFv mutein
B19: LE32N (scFv)
scFv: B1 scFv with E32N, E228D
notes: AS170036 VL1VH1 scFv mutein
B20: HG56H (scFv)
scFv: B1 scFv with G182H, E228D
notes: AS170036 VL1VH1 scFv mutein
B21: LH98D (scFv)
scFv: B1 scFv with H98D, E228D
notes: AS170036 VL1VH1 scFv mutein
B22: LY34D (scFv)
scFv: B1 scFv with Y34D, E228D
notes: AS170036 VL1VH1 scFv mutein
B23: HG56R (scFv)
scFv: B1 scFv with G182R, E228D
notes: AS170036 VL1VH1 scFv mutein
B24: LY34T (scFv)
scFv: B1 scFv with Y34T, E228D
notes: AS170036 VL1VH1 scFv mutein
B25: LE32P (scFv)
scFv: B1 scFv with E32P, E228D
notes: AS170036 VL1VH1 scFv mutein
B26: HG56N (scFv)
scFv: B1 scFv with G182N, E228D
notes: AS170036 VL1VH1 scFv mutein; also called AS170036 VL1VH1-VHG56N
B27: LD97Q (scFv)
scFv: B1 scFv with D97Q, E228D
notes: AS170036 VL1VH1 scFv mutein
B28: LY93H (scFv)
scFv: B1 scFv with Y93H, E228D
notes: AS170036 VL1VH1 scFv mutein
B29: LY34E (scFv)
scFv: B1 scFv with Y34E, E228D
notes: AS170036 VL1VH1 scFv mutein
B30: LY34I (scFv)
scFv: B1 scFv with Y34I, E228D
notes: AS170036 VL1VH1 scFv mutein
B31: LY34F (scFv)
scFv: B1 scFv with Y34F, E228D
notes: AS170036 VL1VH1 scFv mutein
B32: LE32V (scFv)
scFv: B1 scFv with E32V, E228D
notes: AS170036 VL1VH1 scFv mutein
B33: LE32A (scFv)
scFv: B1 scFv with E32A, E228D
notes: AS170036 VL1VH1 scFv mutein
B34: HG56F (scFv)
scFv: B1 scFv with G182F, E228D
notes: AS170036 VL1VH1 scFv mutein; also called AS170036 VL1VH1-VHG56F
B35: LY34P (scFv)
scFv: B1 scFv with Y34P, E228D
notes: AS170036 VL1VH1 scFv mutein
B36: HG56Y (scFv)
scFv: B1 scFv with G182Y, E228D
notes: AS170036 VL1VH1 scFv mutein; also called AS170036 VL1VH1-VHG56Y
B37: LY34M (scFv)
scFv: B1 scFv with Y34M, E228D
notes: AS170036 VL1VH1 scFv mutein
B38: HF101W (scFv)
scFv: B1 scFv with F227W, E228D
notes: AS170036 VL1VH1 scFv mutein
B39: HG56W (scFv)
scFv: B1 scFv with G182W, E228D
notes: AS170036 VL1VH1 scFv mutein
B40: HG56S (scFv)
scFv: B1 scFv with G182S, E228D
notes: AS170036 VL1VH1 scFv mutein
B41: HG56T (scFv)
scFv: B1 scFv with G182T, E228D
notes: AS170036 VL1VH1 scFv mutein
B42: LE32I (scFv)
scFv: B1 scFv with E32I, E228D
notes: AS170036 VL1VH1 scFv mutein
B43: LY34S (scFv)
scFv: B1 scFv with Y34S, E228D
notes: AS170036 VL1VH1 scFv mutein
B44: HG56A (scFv)
scFv: B1 scFv with G182A, E228D
notes: AS170036 VL1VH1 scFv mutein
B45: LE32M (scFv)
scFv: B1 scFv with E32M, E228D
notes: AS170036 VL1VH1 scFv mutein
B46: LE32L (scFv)
scFv: B1 scFv with E32L, E228D
notes: AS170036 VL1VH1 scFv mutein
B47: LH98K (scFv)
scFv: B1 scFv with H98K, E228D
notes: AS170036 VL1VH1 scFv mutein
B48: HG56D (scFv)
scFv: B1 scFv with G182D, E228D
notes: AS170036 VL1VH1 scFv mutein
B49: HG56K (scFv)
scFv: B1 scFv with G182K, E228D
notes: AS170036 VL1VH1 scFv mutein
B50: HG56L (scFv)
scFv: B1 scFv with G182L, E228D
notes: AS170036 VL1VH1 scFv mutein

What was measured:
[1] = target: T1, AFP158/HLA-A*02:01 complex (human); test: SPR, KD ratio to AS170036 VL1VH1;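 also: crude scFv captured on a sensor chip, peptide–HLA complex passed over at several concentrations, association then buffer dissociation, KD derived from on- and off-rates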
T1 construct: flowed over the chip in SPR; also called AFP158 pro
Protocol: (§1) The experiment was carried out as follows. The crude scFv protein were captured onto the sensorchip. Different concentrations (320, 160, 40 nM) of AFP158/HLA-A*02:01 complex flowed over the sensorchip surface, and were allowed to bind the antibody fragment for 100 s followed by injection of the running buffer to allow dissociation of the complex. On-rate (kd) and off-rate (kd) were calculated based on association and dissociation curve, and were used to estimate the equilibrium dissociation constant (KD).

[2] = target: T1, AFP158/HLA-A*02:01 complex; test: SPR, scFv captured, pMHC in flow;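 also: complex injected at several concentrations over crude scFv, association then running-buffer dissociation, KD estimated from kinetic on- and off-rate constants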
[3] = target: T1, AFP158/HLA-A*02:01 complex; test: SPR, KD ratio to AS170036 VL1VH1; remark: listed apart in the source;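 also: crude scFv captured on a sensor chip, peptide–HLA complex passed over at several concentrations, association then buffer dissociation, KD derived from on- and off-rates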
Protocol: as §1

[4] = target: T1, AFP158/HLA-A*02:01 complex; test: SPR, scFv captured, pMHC in flow; remark: listed apart in the source;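 also: complex injected at several concentrations over crude scFv, association then running-buffer dissociation, KD estimated from kinetic on- and off-rate constants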
Protocol: as §1

Row | Binder | Affinity increase [1] [fold] | Kd [2] [nM] | Affinity increase [3] [fold] | Kd [4] [nM]
1 | B1 | 1.2 | 190 |  | 
2 | B2 |  |  | 0.2 | 1400
3 | B3 |  |  | 0.3 | 740
4 | B4 |  |  | 0.1 | 1700
5 | B5 |  |  | 0.1 | 1700
6 | B6 |  |  | 0.3 | 830
7 | B7 | 1.1 | 210 |  | 
8 | B8 |  |  | 0.4 | 660
9 | B9 |  |  | 0.4 | 570
10 | B10 |  |  | 0.4 | 570
11 | B11 |  |  | 0.4 | 570
12 | B12 |  |  | 0.3 | 770
13 | B13 |  |  | 0.2 | 1200
14 | B14 |  |  | 0.3 | 840
15 | B15 | 1 | 240 |  | 
16 | B16 |  |  | 0.3 | 730
17 | B17 | 1 | 240 |  | 
18 | B18 | 1.7 | 130 |  | 
19 | B19 |  |  | 0.4 | 690
20 | B20 | 1.5 | 150 |  | 
21 | B21 |  |  | 0.2 | 1100
22 | B22 |  |  | 0.3 | 740
23 | B23 | 0.8 | 300 |  | 
24 | B24 |  |  | 0.1 | 2200
25 | B25 |  |  | 0.2 | 1400

Row | Binder | Affinity increase [1] [fold] | Kd [2] [nM] | Affinity increase [3] [fold] | Kd [4] [nM]
26 | B26 | 2.5 | 92 |  | 
27 | B27 |  |  | 0.4 | 580
28 | B28 |  |  | 0.4 | 620
29 | B29 |  |  | 0.2 | 1400
30 | B30 |  |  | 0.1 | 1800
31 | B31 |  |  | 0.3 | 780
32 | B32 |  |  | 0.3 | 930
33 | B33 |  |  | 0.3 | 700
34 | B34 | 2.3 | 98 |  | 
35 | B35 |  |  | 0.2 | 1400
36 | B36 | 6.6 | 35 |  | 
37 | B37 |  |  | 0.2 | 1100
38 | B38 | 0.8 | 300 |  | 
39 | B39 | 1.7 | 130 |  | 
40 | B40 | 1.5 | 160 |  | 
41 | B41 | 0.7 | 340 |  | 
42 | B42 |  |  | 0.3 | 860
43 | B43 |  |  | 0.2 | 1000
44 | B44 | 1.4 | 160 |  | 
45 | B45 |  |  | 0.4 | 590
46 | B46 |  |  | 0.3 | 980
47 | B47 |  |  | 0.2 | 1100
48 | B48 | 1 | 230 |  | 
49 | B49 | 0.7 | 350 |  | 
50 | B50 | 0.8 | 290 |  | 
